± gives the uncertainty stated by the source.
Assay: self-splicing fitness, log relative to wild type (ln ratio); higher = more splicing; Tetrahymena group I intron in knt gene, E. coli kanamycin selection, DiMSum; sequences stand for … in CUCUCU…GGAGGGAAAAGUUAUCAGGCAUGCACCUGGUAGCUAGUCUUUAAACCAAUAGAUUGCAUCGGUUUAAAAGGCAAGACCGUCAAAUUGCGGGAAAGGGGUCAACAGCCGUUCAGUACCAAGUCUCAGGGGAAACUUUGAGAUGGCCUUGCAAAGGGUAUGGUAAUAAGCUGACGGACAUGGUCCUAACCACGCAGCCAAGUCCUAAGUCAACAGAUCUUCUGUUGAUAUGGAUGCAGUUCACAGACUAAAUGUCGGUCGGGGAAGAUGUAUUCUUCUCAUAAGAUAUAGUCGGACCUCUCCUUAAUGGGAGCUAGCGGAUGAAGUGAUGCAACACUGGAGCCGCUGGGAACUAAUUUGUAUGCGAAAGUAUAUUGAUUAGUUUUGGAGUACUCGUGGUCG
In short: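 Pooled colonies went to amplicon sequencing on an Illumina HiSeq 2500 after six replicate transformations. The plates were LB agar with 100 μg/mL carbenicillin, 50 μM IPTG and 0.2% rhamnose, with or without 25 μg/mL kanamycin, incubated overnight at 37°C or 30°C. The E. coli BL21(DE3) library had all eight P1ex-region intron nucleotides randomised, the intron placed in the knt kanamycin-resistance gene on pET-22b(+). DiMSum fitness is the error-weighted combination of replicate fold changes, kanamycin against none, normalised to wild type.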

Sequence | self-splicing fitness (ln) (37 °C) | self-splicing fitness (ln) (30 °C)
GUAUAGCAAUAUUACGGUAC | -2.25 ± 0.33 | 
AAUCAGCAAUAUUACGGAUA | 0.49 ± 0.086 | -0.0268 ± 0.069
AUGGAGCAAUAUUACGAUUU | -1.6 ± 0.16 | -1.08 ± 0.12
CUGGAGCAAUAUUACGAACA | -1.64 ± 0.48 | -2.85 ± 0.42
AGUCAGCAAUAUUACGACUC | -2.21 ± 0.24 | -3.14 ± 0.25
ACGAAGCAAUAUUACGAACU | -0.697 ± 0.093 | -0.572 ± 0.084
UCGGAGCAAUAUUACGCGGG | -2.77 ± 0.27 | -4.21 ± 0.31
GCUCAGCAAUAUUACGGUUC | 0.0632 ± 0.071 | -0.806 ± 0.065
CCUUAGCAAUAUUACGCUGC |  | -2.81 ± 0.28
GUGUAGCAAUAUUACGUGAA | -0.954 ± 0.2 | -1.94 ± 0.19
GUCUAGCAAUAUUACGAGAC | -2.34 ± 0.3 | -3.7 ± 0.24
ACGAAGCAAUAUUACGAACG | -0.288 ± 0.11 | -1.3 ± 0.091
CAAUAGCAAUAUUACGAGUA | -2.38 ± 0.2 | -2.31 ± 0.21
GACUAGCAAUAUUACGCUAA | -0.983 ± 0.13 | -1.08 ± 0.12
CUAUAGCAAUAUUACGGGGA | -2.87 ± 0.31 | -2.58 ± 0.17
CUCGAGCAAUAUUACGACUG | -0.299 ± 0.15 | -1.28 ± 0.1
UGGAAGCAAUAUUACGAGAU | -2.47 ± 0.21 | -3.92 ± 0.26
CCAUAGCAAUAUUACGUUGG | -3.27 ± 0.24 | -4.37 ± 0.25
AUUCAGCAAUAUUACGCGCG | 0.873 ± 0.15 | -0.817 ± 0.12
GGCCAGCAAUAUUACGAUAU | -1.78 ± 0.1 | -1.67 ± 0.08
GGAAAGCAAUAUUACGUCUC |  | -3.22 ± 0.41
UCAGAGCAAUAUUACGAUUU | -1.67 ± 0.22 | -3.82 ± 0.3
UCAUAGCAAUAUUACGGGCG | -0.909 ± 0.12 | -1.12 ± 0.096
GGGCAGCAAUAUUACGGAAC | -1.75 ± 0.15 | -1.22 ± 0.1

Sequence | self-splicing fitness (ln) (37 °C) | self-splicing fitness (ln) (30 °C)
UUGUAGCAAUAUUACGUCGG | -0.478 ± 0.093 | -1.21 ± 0.094
CCGCAGCAAUAUUACGUAUC | -1.91 ± 0.2 | -4.05 ± 0.28
CUAUAGCAAUAUUACGCCAG | -0.622 ± 0.25 | -1.83 ± 0.18
UCGUAGCAAUAUUACGGGCU | -2.41 ± 0.49 | 
UGGGAGCAAUAUUACGCCGA | -0.137 ± 0.24 | -0.637 ± 0.4
CCGUAGCAAUAUUACGACUG | -0.95 ± 0.15 | -0.0597 ± 0.12
GACUAGCAAUAUUACGGCCU | -0.85 ± 0.16 | -1 ± 0.11
AAUUAGCAAUAUUACGCUUG | 0.227 ± 0.095 | -0.701 ± 0.07
UAUCAGCAAUAUUACGCCAU | -1.55 ± 0.28 | -1.73 ± 0.27
CGAUAGCAAUAUUACGCUUU | -3.14 ± 0.34 | -3.56 ± 0.35
GCAGAGCAAUAUUACGUUAG | -1.61 ± 0.17 | -3.42 ± 0.26
GGGUAGCAAUAUUACGAGAU | -1.59 ± 0.21 | -2.43 ± 0.19
UUUAAGCAAUAUUACGCUAA | -1.09 ± 0.19 | -2.34 ± 0.17
GAAGAGCAAUAUUACGGACU | -1.14 ± 0.13 | -2.93 ± 0.22
GGAAAGCAAUAUUACGCAUU | -2.55 ± 0.25 | -2.5 ± 0.12
CGAGAGCAAUAUUACGCAUU | -2.33 ± 0.21 | -2.84 ± 0.24
ACAGAGCAAUAUUACGUGGC | -2.31 ± 0.32 | -3.8 ± 0.25
CAGAAGCAAUAUUACGUCUU | -0.306 ± 0.11 | -1.7 ± 0.089
CCGGAGCAAUAUUACGAACA | -2.9 ± 0.32 | -2.82 ± 0.41
GGUAAGCAAUAUUACGAUUC | 0.0485 ± 0.14 | -0.184 ± 0.14
UGGAAGCAAUAUUACGCUUG | -2.53 ± 0.29 | -3.54 ± 0.26
AUAGAGCAAUAUUACGUUGC | -2.05 ± 0.26 | -2.95 ± 0.2
ACGUAGCAAUAUUACGCGGC | -2.47 ± 0.42 | -3.01 ± 0.22
GCUCAGCAAUAUUACGAGCU | -2.27 ± 0.35 | -1.77 ± 0.2
